Assays:
[1] = target: GST-karyopherin α (karyopherin α expressed as a fusion protein with glutathione S-transferase), immobilized on glutathione Sepharose beads; assay: pull-down on GST-karyopherin α beads, PCR, Phosphorimager; against untreated lysate
[2] = target: GST-karyopherin α (karyopherin α expressed as a fusion protein with glutathione S-transferase), immobilized on glutathione Sepharose beads; assay: pull-down on GST-karyopherin α beads, PCR; against untreated extract
[3] = target: GST-karyopherin α (karyopherin α expressed as a fusion protein with glutathione S-transferase), immobilized on glutathione Sepharose beads; assay: pull-down on GST-karyopherin α beads, PCR

## HIV-1RF pre-integration complexes
[1]
  fold reduction of binding in the presence of 0.1 µM CNI-H0294 (small molecule): 8 fold
  fold reduction of binding in the presence of 1 µM CNI-H0294 (small molecule): 25 fold

## wild-type HIV-1NLHX pre-integration complexes
[2]
  percent reduction of binding in the presence of 1 µM CNI-H0294 (small molecule): 95%

## HIV-1NLHX pre-integration complexes that lack Vpr (MA NLS+ Vpr-)
[2]
  percent reduction of binding in the presence of 1 µM CNI-H0294 (small molecule): 95%

## HIV-1NLHX pre-integration complexes with mutated MA NLS (MA NLS- Vpr+)
[3]
  binding as percent of that of MA NLS+ complexes (% of MA NLS+ complexes): 1 to 5

Reference: patent publication US20100137566A1
